Measured values: patent publication US20090074779A1

Biological target: TrkC, Q16288
Test: SPR (BIAlite), receptor amine-coupled on CM4 chip, ligand injected, 25 C
Details: remark: other sources report otherwise

TrkC, Q16288, sequence (Q16288 32-429 limits assumed): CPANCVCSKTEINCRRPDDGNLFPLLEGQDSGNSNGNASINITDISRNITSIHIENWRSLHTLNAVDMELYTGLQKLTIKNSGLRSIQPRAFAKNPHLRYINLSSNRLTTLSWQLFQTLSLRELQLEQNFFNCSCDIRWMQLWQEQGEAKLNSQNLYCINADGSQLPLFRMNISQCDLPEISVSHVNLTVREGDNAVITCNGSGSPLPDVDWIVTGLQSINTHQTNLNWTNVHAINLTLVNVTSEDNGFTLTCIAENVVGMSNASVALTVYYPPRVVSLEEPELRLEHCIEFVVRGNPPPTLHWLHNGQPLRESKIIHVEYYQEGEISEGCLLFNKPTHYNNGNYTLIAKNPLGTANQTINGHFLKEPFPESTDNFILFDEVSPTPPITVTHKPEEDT

Kd: 14 nM
B1: BDNF, P23560 129-247 (ligand, UniProt P23560 129-247, looked up)
chain: HSDPARRGELSVCDSISEWVTAADKKTAVDMSGGTVTVLEKVPVSKGQLKQYFYETKCNPMGYTKEGCRGIDKRHWNSQCRTTQSYVRALTMDSKKRIGWRFIRIDTSCVCTLTIKRGR
